Measurements: patent US20080318839A1

Experiments:
Cf2-PBD-VP64 (human) = Cf2-PBD-VP64 (human) (UniProt P06401); test: cell-based or functional assay
ER-VP64 (mouse) = ER-VP64 (mouse) (UniProt P19785); test: cell-based or functional assay
Sequence of ER-VP64 (mouse) (P19785 282-599 G525R): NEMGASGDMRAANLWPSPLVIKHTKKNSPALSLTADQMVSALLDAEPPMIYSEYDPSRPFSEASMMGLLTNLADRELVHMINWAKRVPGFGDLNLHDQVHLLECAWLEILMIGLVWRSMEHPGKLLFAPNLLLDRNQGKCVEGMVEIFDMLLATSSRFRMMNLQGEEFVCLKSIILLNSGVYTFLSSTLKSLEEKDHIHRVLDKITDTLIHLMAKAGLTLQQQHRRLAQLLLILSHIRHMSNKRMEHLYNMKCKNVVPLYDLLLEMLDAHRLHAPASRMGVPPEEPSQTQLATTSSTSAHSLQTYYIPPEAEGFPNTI

Sequence of Cf2-PBD-VP64 (human) (P06401 640-914): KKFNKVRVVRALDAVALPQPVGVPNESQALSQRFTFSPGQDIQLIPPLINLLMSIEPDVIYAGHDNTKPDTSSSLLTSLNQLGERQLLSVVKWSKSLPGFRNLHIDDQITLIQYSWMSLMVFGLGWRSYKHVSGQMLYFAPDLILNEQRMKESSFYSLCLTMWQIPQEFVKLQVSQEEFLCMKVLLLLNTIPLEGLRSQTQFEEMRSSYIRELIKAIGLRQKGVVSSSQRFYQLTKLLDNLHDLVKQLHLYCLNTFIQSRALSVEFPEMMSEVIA
Sequence of C7-PBD-VP64 (P06401 640-914): as above

Substance	ligand-dependent change in transcription, C7-Cf2 TATA luciferase reporter (Cf2-PBD-VP64 (human)) [fold]	luciferase assay, erbB-2 promoter activity in HeLa cells, with Tamoxifen (ER-VP64 (mouse)) [fold]	tamoxifen-dependent activation of the erbB-2 promoter (luciferase) (ER-VP64 (mouse)) [fold]
C7-PBD-VP64 (from UniProt P06401 640-914)	2		
E2C-ER (from UniProt P19785 282-599)		3	5.3
